From patent US20220242932A1, “ULINASTATIN POLYPEPTIDES FOR TREATING DISEASES” (DiaMedica USA Inc., priority 2021, published 2022) come the findings set out here.

One test has as its target Neutrophil elastase (NE) (UniProt P08246). Kind of test: cell-based or functional assay.
The target in a further test is T1, neutrophil elastase (Homo sapiens, UniProt P08246).
T1 construct: purchased Enzo Life Sciences
T1 sequence (P08246 30-267): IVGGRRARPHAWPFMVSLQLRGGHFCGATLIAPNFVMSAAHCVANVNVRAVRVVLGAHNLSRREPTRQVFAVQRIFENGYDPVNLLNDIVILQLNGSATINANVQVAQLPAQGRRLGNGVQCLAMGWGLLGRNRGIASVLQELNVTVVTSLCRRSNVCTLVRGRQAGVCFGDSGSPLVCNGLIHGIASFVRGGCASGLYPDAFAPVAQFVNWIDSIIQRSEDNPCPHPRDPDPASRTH
Kind of test: Neutrophil Elastase Colorimetric Drug Discovery Assay (Enzo Life Sciences), in vitro inhibition of neutrophil elastase. Format: biochemical. The method, then: In vitro studies were performed to test the ability of ulinastatin to inhibit neutrophil elastase (NE). The recombinant ulinastatin polypeptide (DM300) in this experiment is the UTIΔCS variant (SEQ ID NO: 2), which has an N-linked glycan at residue N45 and a non-natural O-linked glycan at residue T17 after recombinant preparation according to methods described in U.S. Provisional Application Nos. 63/108,733 and 63/021,938 (herein incorporated by reference).
Recombinant ulinastatin (DM300) was tested for inhibition of neutrophil elastase at 8 concentrations of DM300, with triplicate measurements per compound concentration. Neutrophil elastase activity was measured using the Neutrophil Elastase Colorimetric Drug Discovery Assay (Enzo Life Sciences) as per the manufacturer's protocol. 65 μl of assay buffer was placed into the required number of wells of a 96 well, clear, half area plate and equilibrated to 37° C. Inhibitor was added to a final reaction concentration at 100, 31.6, 10, 3.16, 1, 0.316, 0.1, 0.0316, or 0 μg/mL DM300 by addition of 20 μl of 5× concentration of DM300 diluted in assay buffer, followed by 10 μl of diluted neutrophil elastase. 100 μM elastatinal was also included as a control. After 15 minutes at 37° C., 5 μl of diluted substrate was added and the plate was read in SpectraMax m5 Microplate Reader equilibrated to 37° C. Linear portions of the data were selected, and the resulting data was analyzed using GraphPad Prism V.8.2.1.

On to “Recombinant ulinastatin polypeptide (DM300), UTIΔCS variant (from UniProt P02760 206-352)”, for which, in the test with Neutrophil elastase (NE), the IC50 (inhibition of neutrophil elastase activity, colorimetric substrate assay) was determined as 3.15 µg/mL; the IC50 (inhibition of neutrophil elastase activity, colorimetric substrate assay), molar conversion is 43.8 nM; the LogIC50 (best-fit value) was 0.499 log10(µg/ml).

B1: DM300: recombinant ulinastatin polypeptide, UTIΔCS variant (SEQ ID NO: 2, S10A), N-linked glycan at N45 and non-natural O-linked glycan at T17 (protein, listed as Homo sapiens)
chain: AVLPQEEEGAGGGQLVTEVTKKEDSCQLGYSAGPCMGMTSRYFYNGTSMACETFQYGGCMGNGNNFVTEKECLQTCRTVAACNLPIVRGPCRAFIQLWAFDAVKGKCVLFPYGGCQGNGNKFYSEKECREYCGVPGDGDEELLRFSN
modifications: N-glycan N45, O-glycan T17
Turning to B1, the “inhibitory activity in an in vitro assay of neutrophil elastase activity” value in the test with neutrophil elastase (FIG. 1) is given as “significant inhibitory activity”. For the same molecule, the HillSlope in the test with neutrophil elastase (best-fit value, log(inhibitor) vs. response, variable slope (four parameters)) is on record as −1.004. The LogIC50 in the test with neutrophil elastase (best-fit value, log(inhibitor) vs. response, variable slope (four parameters), concentration in μg/mL) is 0.4987. For the same molecule, the 50% inhibitory concentration (IC50) (usually the concentration that inhibits the measured activity by half) in the test with neutrophil elastase (converted from 3.153 μg/ml, assuming 1 Da=1 g/mol) was approximately 43.8 nM.
